Laboratory results taken from publication PMC10017804.

Molecular target: photosystem II (PSII) complex of Porphyridium purpureum (P. purpureum (endogenous in P. purpureum cells))
Assay: cryo-EM structure; in situ, single cryo-EM images (no tilt series) of FIB-milled P. purpureum cellular lamellae; particles localized by GisSPA, then 3D classification and local refinement

photosystem II (PSII) complex of Porphyridium purpureum
stoichiometry N: 4
